Target: the molecule itself
Assay: SEC-MALS

B1: MVP-s (codon-optimized synthetic MVP, M. jannaschii voltage-gated protein), N-terminal His tag, from pET15b (natural protein, Methanococcus jannaschii, UniProt Q57603 1-209, looked up)
chain: MNLKDRRLKKIMEVLSLIFTFEIVASFILSTYNPPYQDLLIKLDYISIMFFTFEFIYNFYYVEDKAKFFKDIYNIVDAIVVIAFLLYSLQVFYSKAFLGLRVINLLRILVLLRIIKLRKLEENQALINFLTLLTICFIASCLIWIVESGVNPAINNFFDAFYFTTISITTVGYGDITPKTDAGKLIIIFSVLFFISGLITSLQKALKGD
- stoichiometry N: 4

Reference: publication PMC3985891 (Biochemistry, 2014)
